Values quoted from earlier work, collected in publication PMC8608346.

Target: FPR1 (Homo sapiens) (UniProt P21462)
Chain of UniProt P21462 (P21462 whole entry): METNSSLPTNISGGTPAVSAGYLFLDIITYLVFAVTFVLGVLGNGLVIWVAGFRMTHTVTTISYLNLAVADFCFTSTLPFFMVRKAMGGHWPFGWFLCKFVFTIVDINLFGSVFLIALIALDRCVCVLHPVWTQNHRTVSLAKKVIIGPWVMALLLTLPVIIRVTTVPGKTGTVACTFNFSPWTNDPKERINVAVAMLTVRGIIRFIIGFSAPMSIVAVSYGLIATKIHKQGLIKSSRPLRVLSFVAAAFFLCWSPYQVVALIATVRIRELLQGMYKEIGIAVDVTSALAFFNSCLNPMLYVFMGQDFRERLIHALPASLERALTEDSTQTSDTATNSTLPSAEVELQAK

Kd: 447 pM
Substance: FAM19A4 (from UniProt Q96LR4)
